Results as given in the FLAb antibody collection.

Test: patients with anti-drug antibodies; higher = more immunogenic

Protein	patients with anti-drug antibodies [%]
unnamed (protein) chain 1: QVQLQQSGAELVRPGTSVKVSCKASGYAFTNYLIEWVKQRPGQGLEWIGVINPGSGGTNYNEKFKGKATLTADKSSSTAYMQLSSLTSDDSAVYFCARDGPWFAYWGQGTLVTVSA chain 2: NIVMTQSPKSMSMSVGERVTLTCKASENVVTYVSWYQQKPEQSPKLLIYGASNRYTGVPDRFTGSGSATDFTLTISSVQAEDLADYHCGQGYSYPYTFGGGTKLEIK	80
unnamed (protein) chain 1: QVQLVESGGGVVQPGRSLRLSCAASGFTFSSFGMHWVRQAPGKGLEWVAVISFDGSIKYSVDSVKGRFTISRDNSKNTLFLQMNSLRAEDTAVYYCARDRLNYYDSSGYYHYKYYGMAVWGQGTTVTVSS chain 2: QSVLTQPPSVSAAPGQKVTISCSGSSSNIGNNYVSWYQQLPGTAPKLLIYDNNKRPSGIPDRFSGSKSGTSTTLGITGLQTGDEADYYCGTWDSRLSAVVFGGGTKLTVL	2.4
unnamed (protein) chain 1: EVQLVESGGGLVQPGGSLRLSCAASGFTFSSYNMNWVRQAPGKGLEWVSYISSSSSTIYYADSVKGRFTISRDNAKNSLSLQMNSLRDEDTAVYYCARAYYYGMDVWGQGTTVTVSS chain 2: DIQMTQSPSSVSASVGDRVTITCRASQGISGWLAWYQQKPGKAPKFLIYAASTLQSGVPSRFSGSGSGTDFTLTISSLQPEDFATYYCQQANSFPPTFGGGTKVEIK	1
unnamed (protein) chain 1: QVQLVQSGAEVKKPGASVKVSCKASGYTFTDYYMHWVRQAPGQGLEWMGRVNPNRRGTTYNQKFEGRVTMTTDTSTSTAYMELRSLRSDDTAVYYCARANWLDYWGQGTTVTVSS chain 2: DIQMTQSPSSLSASVGDRVTITCSVSSSVSSIYLHWYQQKPGKAPKLLIYSTSNLASGVPSRFSGSGSGTDFTLTISSLQPEDFATYYCQVYSGYPLTFGGGTKVEIK	0
unnamed (protein) chain 1: EVQLVESGGGLEQPGGSLRLSCAGSGFTFRDYAMTWVRQAPGKGLEWVSSISGSGGNTYYADSVKGRFTISRDNSKNTLYLQMNSLRAEDTAVYYCAKDRLSITIRPRYYGLDVWGQGTTVTVSS chain 2: DIVMTQSPLSLPVTPGEPASISCRSSQSLLYSIGYNYLDWYLQKSGQSPQLLIYLGSNRASGVPDRFSGSGSGTDFTLKISRVEAEDVGFYYCMQALQTPYTFGQGTKLEIK	4
unnamed (protein) chain 1: EVQLLESGGGLVQPGGSLRLSCAASGFTFSSYAMSWVRQAPGKGLEWVSGITGSGGSTYYADSVKGRFTISRDNSKNTLYLQMNSLRAEDTAVYYCAKDPGTTVIMSWFDPWGQGTLVTVSS chain 2: EIVLTQSPGTLSLSPGERATLSCRASQSVRGRYLAWYQQKPGQAPRLLIYGASSRATGIPDRFSGSGSGTDFTLTISRLEPEDFAVFYCQQYGSSPRTFGQGTKVEIK	1
unnamed (protein) chain 1: EVQLVESGGGLVQPGGSLRLSCAASGFTFSRYWMSWVRQAPGKGLEWVANIKQDGSEKYYVDSVKGRFTISRDNAKNSLYLQMNSLRAEDTAVYYCAREGGWFGELAFDYWGQGTLVTVSS chain 2: EIVLTQSPGTLSLSPGERATLSCRASQRVSSSYLAWYQQKPGQAPRLLIYDASSRATGIPDRFSGSGSGTDFTLTISRLEPEDFAVYYCQQYGSLPWTFGQGTKVEIK	3.3
unnamed (protein) chain 1: EVQLVESGGGLVQPGGSLRLSCAASGYSFTGHWMNWVRQAPGKGLEWVGMIHPSDSETRYNQKFKDRFTISVDKSKNTLYLQMNSLRAEDTAVYYCARGIYFYGTTYFDYWGQGTLVTVSS chain 2: DIQMTQSPSSLSASVGDRVTITCRASKTISKYLAWYQQKPGKAPKLLIYSGSTLQSGVPSRFSGSGSGTDFTLTISSLQPEDFATYYCQQHNEYPLTFGQGTKVEIK	6.3
unnamed (protein) chain 1: QVQLVQSGAEVKKPGSSVKVSCKASGGTFSYYWIEWVRQAPGQGLEWMGEILPGSGTTNPNEKFKGRVTITADESTSTAYMELSSLRSEDTAVYYCARADYYGSDYVKFDYWGQGTLVTVSS chain 2: DIQMTQSPSSLSASVGDRVTITCKASQHVITHVTWYQQKPGKAPKLLIYGTSYSYSGVPSRFSGSGSGTDFTLTISSLQPEDFATYYCQQFYEYPLTFGGGTKVEIK	9
unnamed (protein) chain 1: EVQLVESGGGLVQPGGSLRLSCAASGFDFSRYWMSWVRQAPGKGLEWIGEINPDSSTINYAPSLKDKFIISRDNAKNSLYLQMNSLRAEDTAVYYCARPDGNYWYFDVWGQGTLVTVSS chain 2: DIQMTQSPSSLSASVGDRVTITCKASQDVGIAVAWYQQKPGKVPKLLIYWASTRHTGVPDRFSGSGSGTDFTLTISSLQPEDVATYYCQQYSSYPYTFGQGTKVEIK	18.5
unnamed (protein) chain 1: QVQLVQSGSELKKPGASVKVSCKASGYTFTDNNMDWVRQAPGQGLEWMGDINTRSGGSIYNEEFQDRVIMTVDKSTDTAYMELSSLRSEDTATYHCARRKSYGYYLDEWGEGTLVTVSS chain 2: DIQMTQSPSSLSASVGDRVTITCKASRNIERQLAWYQQKPGQAPELLIYQASRKESGVPDRFSGSRYGTDFTLTISSLQPEDIATYYCQQYSDPPLTFGGGTKVEIK	3.5
unnamed (protein) chain 1: EVQLLQSGPELEKPGASVMISCKASGSSFTGYNMNWVRQNIGKSLEWIGAIDPYYGGTSYNQKFKGRATLTVDKSSSTAYMHLKSLTSEDSAVYYCVSGMEYWGQGTSVTVSS chain 2: EIVMTQSPATLSVSPGERATLSCRSSQSLVHRNGNTYLHWYLQKPGQSPKLLIHKVSNRFSGVPDRFSGSGSGTDFTLKISRVEAEDLGVYFCSQSTHVPPLTFGAGTKLELK	17
unnamed (protein) chain 1: QVQLKESGPGLVAPSQSLSITCTVSGFSLTDYGVRWIRQPPGKGLEWLGVIWGGGSTYYNSALKSRLSISKDNSKSQVFLKMNSLQTDDTAMYYCAKEKRRGYYYAMDYWGQGTSVTVSS chain 2: ENVLTQSPAIMSASPGEKVTMTCRASSSVSSSYLHWYQQKSGASPKLWIYSTSNLASGVPARFSGSGSGTSYSLTISSVEAEDAATYYCQQYSGYPLTFGGGTKLEIK	33.3
unnamed (protein) chain 1: EVQLVQSGAEVKKPGATVKISCKVSGYTFTDYYIHWVQQAPGKGLEWMGRVNPDHGDSYYNQKFKDKATITADKSTDTAYMELSSLRSEDTAVYFCARNYLFDHWGQGTLVTVSS chain 2: DIQMTQSPSSVSASVGDRVTITCKASQDVGTAVAWYQQKPGKAPKLLIYWASIRHTGVPSRFSGSGSGTDFTLTISSLQPEDFATYYCHQFATYTFGGGTKVEIK	58.6
unnamed (protein) chain 1: QVQLQESGPGLVKPSQTLSLTCTVSGYSISSDFAWNWIRQPPGKGLEWMGYISYSGNTRYQPSLKSRITISRDTSKNQFFLKLNSVTAADTATYYCVTAGRGFPYWGQGTLVTVSS chain 2: DIQMTQSPSSMSVSVGDRVTITCHSSQDINSNIGWLQQKPGKSFKGLIYHGTNLDDGVPSRFSGSGSGTDYTLTISSLQPEDFATYYCVQYAQFPWTFGGGTKLEIK	5
unnamed (protein) chain 1: QVQLVQSGAEVKKPGASVKVSCKASGYTFTSYDINWVRQATGQGLEWMGWMNPNSGNTGYAQKFQGRVTMTRNTSISTAYMELSSLRSEDTAVYYCARDPYYYYYGMDVWGQGTTVTVSS chain 2: QSVLTQPPSVSAAPGQKVTISCSGSSSNIENNHVSWYQQLPGTAPKLLIYDNNKRPSGIPDRFSGSKSGTSATLGITGLQTGDEADYYCETWDTSLSAGRVFGGGTKLTVL	0
unnamed (protein) chain 1: EVQLLESGGGLVQPGGSLRLSCAASGFTFSSYAMSWVRQAPGKGLEWVSTISSGGSYTSYPDSVKGRFTISRDNSKNTLYLQMNSLRAEDTAVYYCAKQDYAMNYWGQGTLVTVSS chain 2: DIQMTQSPSSLSASVGDRVTITCKASQDVSTAVAWYQQKPGKAPKLLIYSASYRYTGVPSRFSGSGSGTDFTLTISSLQPEDFATYYCQQHYSTPWTFGGGTKVEIK	9.4
unnamed (protein) chain 1: QVQLVQSGAEVKKPGASVKVSCKASGYIFSNYWIQWVRQAPGQGLEWMGEILPGSGSTEYTENFKDRVTMTRDTSTSTVYMELSSLRSEDTAVYYCARYFFGSSPNWYFDVWGQGTLVTVSS chain 2: DIQMTQSPSSLSASVGDRVTITCGASENIYGALNWYQQKPGKAPKLLIYGATNLADGVPSRFSGSGSGTDFTLTISSLQPEDFATYYCQNVLNTPLTFGQGTKVEIK	2
unnamed (protein) chain 1: EVQLVESGGGLVQPGGSLRLSCAVSGFSSTNYHVHWVRQAPGKGLEWMGVIWGDGDTSYNSVLKSRFTISRDTSKNTVYLQMNSLRAEDTAVYYCARQLTHYYVLAAWGQGTLVTVSS chain 2: DIQMTQSPSSLSASVGDRVTITCRASEDLYYNLAWYQRKPGKAPKLLIYDTYRLADGVPSRFSGSGSGTDYTLTISSLQPEDFASYYCQQYYKFPFTFGQGTKVEIK	8.9
unnamed (protein) chain 1: EVQLLESGGGLVQPGGSLRLSCAVSGFTFNSFAMSWVRQAPGKGLEWVSAISGSGGGTYYADSVKGRFTISRDNSKNTLYLQMNSLRAEDTAVYFCAKDKILWFGEPVFDYWGQGTLVTVSS chain 2: not shown	0
